The values that follow are results of earlier work, collected in patent publication US20110294730A1, “METHOD OF TREATING GLAUCOMA AND INTRAOCULAR HYPERTENSION” (priority 2010, published 2011).

In this data set the test system is trabecular meshwork.

B1: IL-Ia: exogenous growth factor (protein, UniProt P01583 113-271, looked up)
Interleukin-1 alpha: SAPFSFLSNVKYNFMRIIKYEFILNDALNQSIIRANDQYLTAAALHNLDEAVKFDMGAYKSSKDDAKITVILRISKTQLYVTAQDEDQPVLLKEMPEIPKTITGSETNLLFFWETHGTKNYFTSVAHPNLFIATKQDYWVCLAGGPPSITDFQILENQA
Take B1: the extracellular acidification entry is “significantly stimulated”.
